# Test results from publication PMC9131392 (Biomacromolecules, 2021).
# “And” between values parts separate entries of the source, which are not always exact repeats. Equal values may be shown once. Read-outs that look alike come from different tables or passages of the source.
# Columns and labels:
# SEC-SAXS [1] = molecular target: the molecule itself; test: SEC-SAXS
# SEC-SAXS [2] = molecular target: the molecule itself; test: SEC-SAXS; remark: listed apart in the source
protein,measurement,setting,value
"C-phycocyanin (αβ) monomer from Spirulina platensis (complex, open-chain tetrapyrrole chromophore cofactors attached covalently | open-chain tetrapyrrole chromophore cofactors attached covalently) chain 1: not shown chain 2: MFDAFTKVVSQADTRGEMLSTAQIDALSQMVAESNKRLDAVNRITSNASTIVSNAARSLFAEQPQLIAPGGNAYTSRRMAACLRDMEIILRYVTYAVFAGDASVLEDRCLNGLRETYLALGTPGSSVAVGVGKMKEAALAIVNDPAGITPGDCSALASEIASYFDRACAAVS",stoichiometry N,SEC-SAXS [1],12 and 24
same,stoichiometry N,SEC-SAXS [2],3
